These results are taken from publication PMC9408373.

For experiment [1], the target named is CDC42 IH variants (four different single residue mutations and a quadruple mutation of the insert helix). As to the kind of experiment: fluorescence polarisation; 1 µM mant-GDP-bound CDC42 in the cuvette, IQGAP protein titrated; quadratic ligand binding equation. In general terms: Fluorescence polarisation rises when a labelled molecule tumbles more slowly, as on binding a larger partner.

Experiment [2] addresses human CDC42 (aa 1-178) 8xSW (human) (UniProt P60953). As to the kind of experiment: fluorescence polarisation; 1 µM mant-GppNHp-bound CDC42 in the cuvette, IQGAP protein titrated; quadratic ligand binding equation.
The target of experiment [3] is CDC42 IH variants (four different single residue mutations and a quadruple mutation of the insert helix). Described as above.
In experiment [4] the target is the CDC42 variants (2xSW and 8xSW), mGppNHp-bound. The description is as above.

“And” between values parts separate entries of the source, which are not always exact repeats. Equal entries are not always repeated.

Chain of human IQGAP1 C794 (aa 863-1657) (P46940 863-1657): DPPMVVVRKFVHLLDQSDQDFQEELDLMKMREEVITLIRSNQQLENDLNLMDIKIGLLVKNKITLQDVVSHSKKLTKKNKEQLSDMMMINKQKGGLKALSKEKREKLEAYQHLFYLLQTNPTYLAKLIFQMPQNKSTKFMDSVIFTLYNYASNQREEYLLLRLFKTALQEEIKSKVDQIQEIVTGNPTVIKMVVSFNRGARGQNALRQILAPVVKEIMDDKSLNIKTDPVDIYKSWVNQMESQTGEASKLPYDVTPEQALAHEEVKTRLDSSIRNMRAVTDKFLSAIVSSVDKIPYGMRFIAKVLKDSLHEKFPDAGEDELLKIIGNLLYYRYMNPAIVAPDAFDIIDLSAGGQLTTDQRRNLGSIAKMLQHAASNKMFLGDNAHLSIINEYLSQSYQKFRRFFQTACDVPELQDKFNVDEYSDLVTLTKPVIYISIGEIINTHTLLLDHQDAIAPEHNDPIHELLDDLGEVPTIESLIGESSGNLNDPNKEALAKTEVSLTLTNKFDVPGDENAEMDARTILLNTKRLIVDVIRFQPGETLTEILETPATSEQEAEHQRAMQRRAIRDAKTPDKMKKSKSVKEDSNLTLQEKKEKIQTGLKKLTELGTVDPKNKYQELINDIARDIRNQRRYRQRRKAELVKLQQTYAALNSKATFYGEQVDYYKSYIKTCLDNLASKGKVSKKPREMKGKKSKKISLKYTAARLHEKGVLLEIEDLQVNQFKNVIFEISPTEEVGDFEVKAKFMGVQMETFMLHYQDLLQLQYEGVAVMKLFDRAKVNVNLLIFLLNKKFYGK
Chain of human IQGAP1 GRD1 (aa 962-1345) (P46940 962-1345): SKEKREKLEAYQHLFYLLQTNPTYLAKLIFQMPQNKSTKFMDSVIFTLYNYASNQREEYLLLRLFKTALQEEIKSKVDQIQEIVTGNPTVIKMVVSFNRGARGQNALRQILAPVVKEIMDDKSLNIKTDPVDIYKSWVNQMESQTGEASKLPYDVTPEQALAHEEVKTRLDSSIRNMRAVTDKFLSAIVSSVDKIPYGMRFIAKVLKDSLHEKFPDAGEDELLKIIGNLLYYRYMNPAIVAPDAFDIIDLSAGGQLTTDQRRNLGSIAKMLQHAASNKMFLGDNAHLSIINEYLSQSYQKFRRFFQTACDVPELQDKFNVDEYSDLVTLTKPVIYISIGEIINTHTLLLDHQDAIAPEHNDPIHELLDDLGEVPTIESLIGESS
Chain of human CDC42 (aa 1-178) 8xSW (human) (P60953 1-178): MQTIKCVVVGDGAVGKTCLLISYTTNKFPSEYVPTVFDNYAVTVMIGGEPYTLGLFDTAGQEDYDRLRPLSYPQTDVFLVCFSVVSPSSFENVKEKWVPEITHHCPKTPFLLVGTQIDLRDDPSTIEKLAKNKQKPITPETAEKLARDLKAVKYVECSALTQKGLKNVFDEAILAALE

Consider “human IQGAP1 C794 (aa 863-1657) (from UniProt P46940 863-1657) (domain or fragment)”, for which the fold lower affinity than for CDC42 WT in experiment [1] stood at 3 fold; in experiment [3], 20 fold. Also, in experiment [2], the fold reduction in binding affinity against CDC42 WT stood at 86 fold.
As to “human IQGAP1 GRD1 (aa 962-1345) (from UniProt P46940 962-1345) (domain or fragment)”, the fold reduction in binding affinity against CDC42 WT in experiment [4] was 2 fold and 3 fold.
